Tests used:
[1] = biological target: T1, FcγRIIIA (UniProt P08637 17-208, limits assumed); assay: SPR (Biacore T100), FcγRIIIA with His tag captured on immobilised anti-His antibody, antibody injected (Example 9)
T1 construct: Captured from a 200 nM solution on immobilized anti-His antibody; also called CD16
Procedure: The SPR interaction analysis of captured FcγRIIIA and IgG1 Fc variants was performed on a Biacore T100 system (GE Healthcare) with high immobilized anti-His capturing antibody (GE Healthcare). Immobilization of the anti-His capturing antibody was performed on a CMS chip using the standard amine coupling kit (GE Healthcare) at pH 4.5 10 mM sodium acetate and 10 μg/ml anti-His solution. The immobilization level of anti-His reached more than 10.000 RU. FcγRIIIA was applied in a 200 nM solution, in the running buffer HBS-P+ and captured with a pulse of 60 sec at a flow rate of 30 μl per min. […] The dissociation phase was monitored for 180 sec. The surface was regenerated by a 60 sec washing step with a 10 mM Glycine pH 1.5 at a flow rate of 30 μl per min. The stabilization period took 60 sec. The Biacore T100 evaluation software was used for data analysis.

[2] = biological target: T2, FcγRI (UniProt P12314 16-288, limits assumed); assay: SPR steady state affinity; reference is the IgG1 Wt affinity for FcγRI
T2 construct: Captured from a 100 nM solution on immobilized anti-His antibody; also called FcγRI receptor; FcγRIa
Procedure: (§1) Biacore T100 system (GE Healthcare) with high immobilized anti-His capturing antibody (GE Healthcare). Immobilization of the anti-His capturing antibody was performed on a CMS chip using the standard amine coupling kit (GE Healthcare) at pH 4.5 10 mM sodium acetate and 10 μg/ml anti-His solution. The immobilization level of anti-His reached more than 10.000 RU. FcγRI was applied in a 100 nM solution, in the running buffer HBS-P+ and captured with a pulse of 60 sec at a flow rate of 30 μl per min. […] The dissociation phase was monitored for 180 sec. The surface was regenerated by a 60 sec washing step with a 10 mM Glycine pH 1.5 at a flow rate of 30 μl per min. The stabilization period took 60 sec. The Biacore T100 evaluation software was used for data analysis.
(§2) For the steady state affinity concentration determination the response values from the end of association were used to plot the response against the concentration. The Biacore T100 evaluation software was used to calculate the affinity of samples for immobilized FcγRI receptor from the plot.

[3] = biological target: T2, FcγRI; assay: SPR steady state affinity (Biacore T100), FcγRI captured via anti-His antibody, antibody 1000-62.5 nM
Procedure: as §1, §2

[4] = biological target: T2, FcγRI; assay: SPR steady state affinity fit, FcγRI captured on anti-His antibody; beside it offset (RU) 26.88 and Chi² (RU²) 7.76
Procedure: as §1, §2

T2 sequence (P12314 16-288 limits assumed): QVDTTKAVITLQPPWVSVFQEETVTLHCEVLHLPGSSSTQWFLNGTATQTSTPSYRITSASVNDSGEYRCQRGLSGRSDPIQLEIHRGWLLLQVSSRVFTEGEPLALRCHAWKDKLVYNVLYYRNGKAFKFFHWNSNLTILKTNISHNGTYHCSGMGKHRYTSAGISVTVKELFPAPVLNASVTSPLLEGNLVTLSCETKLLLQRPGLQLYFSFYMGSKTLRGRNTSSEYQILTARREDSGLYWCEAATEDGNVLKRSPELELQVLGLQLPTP
T1 sequence (P08637 17-208 limits assumed): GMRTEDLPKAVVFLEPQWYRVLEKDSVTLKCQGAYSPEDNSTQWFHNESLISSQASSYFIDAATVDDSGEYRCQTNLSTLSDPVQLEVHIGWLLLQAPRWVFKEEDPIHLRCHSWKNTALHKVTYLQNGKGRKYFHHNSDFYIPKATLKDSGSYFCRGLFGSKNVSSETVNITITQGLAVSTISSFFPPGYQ

B1: obinutuzumab N297D (antibody)
heavy: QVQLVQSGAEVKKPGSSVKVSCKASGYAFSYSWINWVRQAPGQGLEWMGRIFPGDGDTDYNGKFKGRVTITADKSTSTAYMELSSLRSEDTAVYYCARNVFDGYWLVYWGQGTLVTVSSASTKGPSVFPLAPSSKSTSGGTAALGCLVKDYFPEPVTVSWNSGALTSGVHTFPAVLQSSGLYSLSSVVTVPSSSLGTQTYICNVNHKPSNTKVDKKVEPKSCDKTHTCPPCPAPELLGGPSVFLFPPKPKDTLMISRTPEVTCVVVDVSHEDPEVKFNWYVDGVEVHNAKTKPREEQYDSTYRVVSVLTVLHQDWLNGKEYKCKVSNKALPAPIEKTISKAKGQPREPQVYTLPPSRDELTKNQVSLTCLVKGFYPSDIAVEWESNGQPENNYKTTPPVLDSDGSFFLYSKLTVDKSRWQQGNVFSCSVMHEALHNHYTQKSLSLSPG
VL: DIVMTQTPLSLPVTPGEPASISCRSSKSLLHSNGITYLYWYLQKPGQSPQLLIYQMSNLVSGVPDRFSGSGSGTDFTLKISRVEAEDVGVYYCAQNLELPYTFGGGTKVEIK
modifications: N297D removes the Fc N-glycosylation site, so the antibody is aglycosylated ('aglyco').
notes: IgG1 expressed in HEK-EBNA or HEK293 and purified by protein A and size exclusion chromatography; also called GA101 N297D; GA101 aglyco (N297D)
- binding result [1]: no binding (tested: 1000 nM)
- fold below the IgG1 Wt affinity [2]: ~50 fold
- Kd [3]: 234 nM
- Kd [4]: 234 nM

Reference: patent US20190092872A1 (Hoffmann-La Roche, published 2019)
